The text below walks through data of patent US20230257435A1, “Wound Healing Composition and Uses Thereof” (AGENCY FOR SCIENCE, TECHNOLOGY AND RESEARCH, priority 2020, published 2023).

“Also recorded” adds a separate entry of the source.

One assay has as its system keratinocytes. As to the kind of experiment: BrdU incorporation after wound scratch (leader/follower cells). The format is cell-based. Conditions: Agrin knockdown; 10 μg/ml sAgrin 18 h; 4 h post-scratch. The protocol:
FIG. 6 Agrin impacts keratinocyte proliferation following wound injury. (a) Control, Agrin depleted indicated keratinocytes and those rescued with 10 μg/ml sAgrin for 18 h were labelled with 20 μM BrdU for 12 hours, before proceeding with wound-scratch assays. The cells were fixed at 4 hours post-scratching and stained with an Anti-BrdU and K17 antibodies. Nuclei were counterstained with DAPI. Representative confocal images at the wound edge (leader) and at-least 200 μm away from the wound margin (followers) are shown. The relative percentage of proliferating cells are shown for each condition graphically (n=5-6 images analyzed for each conditions from three replicates, Students ‘t’ test, **p=0.006, *p-0.003, p=0.005, ***p=0.0001, respectively). Scale bar: 10 μm. (b-c) Schematic showing the states of proliferation at the migrating wound margins. Immunohistological sections stained for Ki67 in control and Agrin depleted wound edges and beds at day 7 post-wounding. Filled arrows denote the base of epidermis (Ep), while arrows represent the wound margin. Asterisk (*) denotes the loss of Ki67 proliferation at the wound margins. Scale bar: 100 μm. The percentage of proliferating cells was quantified using Image J (n=4 sections analyzed from two individual mice, Students ‘t’ tests, **p=0.001).
In general terms: Dividing cells build labelled thymidine or BrdU into new DNA.

The next assay concerns pMLC. Description: Force transmission via ligand conjugated magnetic beads. It is filed as cell-based, human. The protocol: The ligands were conjugated to 4.5 μm epoxide paramagnetic beads (Dynabeads M-450 Epoxy, Thermo Fisher Scientific) according to the manufacturer's manual. Briefly, the beads were washed twice in 0.1 M sodium phosphate buffer, pH 7.4. Subsequently. 8×10^7 beads were conjugated to 20 μg sAgrin, BSA and FN per in 0.1 M sodium phosphate buffer at pH 7.4 for 16-18 h at 4° C. with gentle rotation throughout. The degree of protein conjugation to the beads was verified by a reducing SDS-PAGE gel analysis using a subset of ligand conjugated beads. The remaining beads were washed and subsequently stored in 0.1% BSA-phosphate buffered saline (PBS) pH 7.4 at 4° C. They were subsequently suspended in medium and added on the cells for 30 min at 37° C. After a brief wash with PBS to remove excess non-adherent beads, the cells were placed under a permanent neodymium magnet (J Magnetics, USA) at a distance of 6 mm apart for another 30 min that allowed a vertical tensile force in the magnitudes of ˜200 pN on the beads. The cells were then fixed in 4% paraformaldehyde, permeabilized and processed for immunofluorescence.

The test system of assay [1] is primary mouse keratinocytes over dermal fibroblasts. Description: 3D-stiffness dependent keratinocyte fibroblast co-culture migration assay. It is filed as cell-based. Conditions: 10 μg/ml sAgrin. From the text: A 3D in-vitro wound healing model was created using collagen constructs of defined stiffness modifying a previously published protocol. Collagen constructs were made with Col-T-gel (0.8 KPa-soft) or (30 KPa-stiff) as per manufacturer's recommended protocol containing 300,000 primary mouse dermal fibroblasts (DFs). For some experiments, siControl and siAgrin treated DFs were incorporated within soft or stiff collagen constructs. The constructs bearing fibroblasts were allowed to solidify for 45 min inside incubator. A second layer of collagen matching the stiffness of the underneath layer was added containing 350,000 of primary mouse keratinocytes (KRTs) and the construct was allowed to solidify for 3-4 h. After removing excess media, the constructs were washed gently with 1×PBS twice. An upside down 2μ pipette tip was inserted and gently rotated at the center of the constructs to create a circular wound. The collagen and cells was quickly removed from the wound area and replaced with 40 μl of soft or stiff Col-T-gel matching the consistency and set-up of the constructs. The resultant wounded constructs were placed inside the incubator and imaged after 30 min for day 0 time-points. The migratory keratinocytes were imaged till day 5 post-wounding.

The next assay concerns HEK cells. Description: Crossbow fibronectin micropatterns (geometric constraint). The format is cell-based, human. How it is done: Tissue culture plates were coated with Col-T-gel (Fischer Scientific) of stiffness ranging from 0.8 KPa (soft) to 30 KPa (stiff) as per manufacturer recommendations and allowed to solidify for 40 min at 37° C. inside tissue culture incubators. Some experiments were performed with cells seeded on the poly-hydrogel plates of defined stiffness: 0.2 kPa and 16 kPa soft and hard polyhydrogels, respectively (CytoSoft, Advanced Biomatrix, Inc.,). The determination of stiffness of silicone substrates were done by the manufacturer as per previously published protocols. For certain experiments, indicated amounts of sAgrin was incorporated into the 0.8 KPa collagen gels before gelation process. Upon gelation, trypsinized cells or excised mouse skin explants were plated onto the gels of different stiffness either alone or containing sAgrin. The cells/tissues were incubated under standard culture condition with 500 μl recommended culture medium for the indicated days. The crossbow shaped micropatterns with fibronectin coated islands were generated by microlithography on a 19.5×19.5 mm coverslide from Cytoo, Inc., France. The micropatterns had surface areas of 800μ^2 or 1600μ^2, respectively. Fifty thousand cells after initial siRNA treatment was placed on the micropatterns for 4-6 h before processing them for immunofluorescence. […]

B1: sAgrin: C-terminus recombinant Agrin fragment containing 8 amino acid 'Z8' insert and LG3 domain (SEQ ID NO: 7), His-tagged, expressed in E. coli (protein)
chain: DTLAFDGRTFVEYLNAVTESELANEIPVEKALQSNHFELSLRTEATQGLVLWSGKATERADYVALAIVDGHLQLSYNLGSQPVVLRSTVPVNTNRWLRVVAHREQREGSLQVGNEAPVTGSSPLGATQLDTDGALWLGGLPELPVGPALPKAYGTGFVGCLRDVVVGRHPLHLLEDAVTKPELRPCPTP
modifications: His tag
B1: the “proliferation of follower cells away from the wound margin” value with keratinocytes was “rescued”. Also, the “pMLC recruitment with increasing sAgrin coated beads” value in the assay with pMLC (30 min post-wound scratch) is “greater pMLC recruitment at 30 min post-wound scratch in a dose-dependent fashion”. Further, in the assay on pMLC (30 min post-wounding), the “pMLC intensity in MMP12 depleted cells after force transmission” value is reported as “unable to rescue the reduced pMLC intensity” and the “pMLC recruitment near beads in control cells with exogenous force” value is “further surged pMLC recruitment”. The “pMLC recruitment upon force in Agrin depleted cells (confocal)” value in the assay on pMLC (30 min post-wounding, compared to FN or BSA beads) is given as “enhanced pMLC recruitment upon force application”. Moreover, the “MMP12 recruitment in pMLC activated regions” value in the assay on pMLC (Agrin depleted cells, force transmission) is “effectively enhanced MMP12 recruitment in pMLC activated regions”. The “increase of pMLC around the bead vicinity” value in the assay on pMLC (Agrin depleted cells, force with sAgrin beads 30 min) is on record as around 2 folds. In addition, in the assay on pMLC (control migrating keratinocytes, ligand beads, force), the “activated integrin β1-Agrin localization” value is reported as “substantially increased activated integrin β1-Agrin localization”. The “rescue of reduced pMLC in Agrin depleted cells by force through ligand beads” value in the assay with pMLC (siAgrin cells) is reported as “only restored by force transduced by sAgrin”. For the same molecule, the “keratinocyte migration in soft matrix” value in assay [1] (0.8 KPa, day 5) is “strongly enhanced keratinocyte migration; also recorded: stimulated mouse keratinocyte migration over dermal fibroblasts”. Moreover, the “keratinocyte migration in stiff matrix, Agrin depleted KRTs and DFs” value in assay [1] (30 KPa) is “strongly restored keratinocyte migration”. In addition, the “keratinocyte migration, MMP12 depleted KRTs and DFs” value in assay [1] (soft matrix 0.8 KPa) is on record as “not even rescued by sAgrin supplemented compliant matrices”. For the same molecule, in the assay on HEK cells (800μ^2 patterns, 20 μg/ml sAgrin), the “F-actin stress fibers and pMLC in small crossbow patterns” value is “partially rescued F-actin stress fibers and higher pMLC recruitment to the transverse arc”. The “stress fiber formation in large crossbow patterns” value with HEK cells (1600μ^2 patterns) is “further accentuated”. Moreover, the “tension curvatures at transverse arcs” value with HEK cells (large crossbow patterns) was “significantly higher tension curvatures”. In the assay on HEK cells (large crossbow patterns, sAgrin nourishment), the “F-actin stress fibers and pMLC in MMP12 knockdown cells” value was “did not exhibit F-actin stress fibers and pMLC enrichment in the transverse arcs”. In addition, in the assay with HEK cells (sAgrin in FN crossbow matrix, large patterns), the “tension signature in Agrin depleted cells” value is “restored the tension signature of F-actin stress fiber network and pMLC enriched transverse arcs”.
